# Laboratory results: US20180362616
# T1: APPI-WT (SEQ ID NO: 25), soluble, expressed in Pichia pastoris
# T1 chain: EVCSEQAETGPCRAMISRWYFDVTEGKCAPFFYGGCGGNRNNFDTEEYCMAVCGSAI
# B1: human mesotrypsin (catalytically active) (protein)
# chain: IVGGYTCEENSLPYQVSLNSGSHFCGGSLISEQWVVSAAHCYKTRIQVRLGEHNIKVLEGNEQFINAAKIIRHPKYNRDTLDNDIMLIKLSSPAVINARVSTISLPTTPPAAGTECLISGWGNTLSFGADYPDELKCLDAPVLTQAECKASYPGKITNSMFCVGFLEGGKDSCQRDSGGPVVCNGQLQGVVSWGHGCAWKNRPGVYTKVYNYVDWIKDTIAANS
# Molecular target: T1, APPI-WT (SEQ ID NO: 25), soluble, …
protein,measurement,value
B1,Kcat (s^-1) of hydrolysis of APPI by mesotrypsin (HPLC time course),0.0356 s⁻¹
